In patent US9920082B2, “Water-soluble complexing agents and corresponding lanthanide complexes” (CISBIO BIOASSAYS, priority 2013, dated 2018):

Legend:
[1] = Photophysical properties of the complexes (λ max, quantum yield, life-time); assay type: physicochemical; conditions: solvent MeOH
Text: The photophysical characteristics of some complexes are described in Table 3. […] The values of the quantum yields (Φcm) must be considered to have a margin of error of ±15%. All these complexes have quantum yields above 10%, without adding potassium fluorides. The life-times (τ0) are at least 0.7 ms, which is favorable for FRET experiments. Finally, the complexes comprising solubilizer groups of the sulfonate or carboxylate type are highly soluble in aqueous biological buffers. The presence of charges makes complexes water-soluble that were not so initially.

[2] = Determination of Log P (octanol/water partition coefficient) of europium complexes; assay type: physicochemical; conditions: water/octanol mixtures 2:1, 1:1, 1:2, about 2 μM, ±20%
Text: Log P is a measure of the differential solubility of chemical compounds in two solvents (octanol/water partition coefficient). Log P is equal to the logarithm of the ratio of the concentrations of the substance under investigation in octanol and in water. Log P=Log(Coct/Cwater). This value ascertains the hydrophilic or hydrophobic (lipophilic) character of a molecule. In fact, if Log P is positive and very high, this expresses the fact that the molecule considered is far more soluble in octanol than in water, which reflects its lipophilic character, and vice versa. Zero or negative Log P signifies that the molecule is of a hydrophilic character.
Three equimolar solutions of europium complex were prepared in methanol. The solvent was removed under reduced pressure and the solid that remained was dissolved and stirred for 24 h in a water/octanol mixture (2:1, 1:1, 1:2), (0.9 mL) giving a total concentration of about 2 μM. After equilibration, an emission spectrum of each phase was recorded in methanol (50 μL of solution in 1 mL of methanol). For each mixture, the value of log P was calculated using the following equation: […]

COc1ccc(C#Cc2cc(CN3CCN(Cc4cc(C#Cc5ccc(OC)cc5)cc(P(C)(=O)O)n4)CCN(Cc4cc(C#Cc5ccc(OCC(=O)NCC(=O)N[C@@H](CCCNC(=N)N)C(=O)N[C@@H](CCCNC(=N)N)C(=O)N[C@@H](CCCNC(=N)N)C(=O)N[C@@H](CCCNC(=N)N)C(=O)N[C@@H](CCCNC(=N)N)C(=O)N[C@@H](CCCNC(=N)N)C(=O)N[C@@H](CCCNC(=N)N)C(=O)O)cc5)cc(P(C)(=O)O)n4)CC3)nc(P(C)(=O)O)c2)cc1 [Compound 89]
λ max [1]: 330 nm | τ0 [1]: 1.12 ms | Φem ([1]; margin of error ±15%): 50% | logP [2]: 0.3
